Data published in patent US7026148.

Target: bovine calmodulin (Sigma), P62157

B1: FLAG-tagged wild type DRP-1 (DAP-kinase-related protein 1) (protein)
chain: MEPFKQQKVEDFYDIGEELGSGQFAIVKKCREKSTGLEYAAKFIKKRQSRASRRGVSREEIEREVSILRQVLHHNVITLHDVYENRTDVVHILELVSGGELFDFLAQKESLSEEEATSFIKQILDGVNYLHTKKIAHFDLKPENIMLLDKNIPIPHIKLIDFGLAHEIEDGVEFKNIFGTPEFVAPEIVNYEPLGLEADMWSIGVITYILLSGASPFLGDTKQETLANITSVSYDFDEEFFSHTSELAKDFIRKLLVKETRKRLTIQEALRHPWITPVDNQQAMVRRESVVNLENFRKQYVRRRWKLSFSIVSLCNHLTRSLMKKVHLRPDEDLRNCESDTEEDIARRKALHPRRRSSTS
  amount of phosphorylated MLC in the in vitro kinase assay: The addition of Ca2+/calmodulin to the reaction mixture increased the amount of phosphorylated MLC
